According to publication PMC5610943 (Journal of molecular biology, 2017):

Biological target: recombinant M. smegmatis RNAP β′ subunit (N-terminal 6xHistidine) (M. smegmatis, UniProt A0QS66 1-1317)
Assay: co-IP

binding result: binds
B1: purified recombinant MsmTopoI (enzyme, M. smegmatis, UniProt A0R5D9 1-936, looked up)
chain: MAGGDRGSGGTGNVRRLVIVESPTKARKIAGYLGSNYVVESSRGHIRDLPRNAADVPAKFKSEPWARLGVNVDQNFEPLYIVSPEKKSTVTELKGLLKDVDELYLATDGDREGEAIAWHLLETLKPRVPVKRMVFHEITEPAIRNAAENPRDLDIALVDAQETRRILDRLYGYEVSPVLWKKVAPKLSAGRVQSVATRIIVQRERERMAFHSASYWDVTAELDASVSDPSASPPKFTAKLNTVDGRRVATGRDFDSLGQLKRPDEVLVLDEASAGALASGLRGAQLAVTSVEQKPYTRRPYAPFMTSTLQQEAARKLRFSSERTMSIAQRLYENGYITYMRTDSTTLSESAINAARTQARQLYGEEYVHPSPRQYTRKVKNAQEAHEAIRPAGDVFQTPGQLHSALDTDEFRLYELIWQRTVASQMADARGTTLSLRIGGSASSGEQVVFNASGRTITFPGFLKAYVESIDELAGGESDDAESRLPNLTQGQRVDAADLSADGHQTSPPARYTEASLIKALEELGIGRPSTYSSIIKTIQDRGYVQKKGSALVPSWVAFAVVGLLEQHFGRLVDYDFTAAMEDELDEIANGQEQRTNWLNNFYFGGEHGVEGSIARAGGLKQLVGGNLEGIDAREVNSIKVFDDSEGRPVYVRVGRNGPYLERMVDDPDNPGEQKPQRANLKEDLTPDELTPELAEKLFATPQEGRSLGIDPETGHEIVAKDGRFGPYVTEVLPEPEDGGDDGTAGTPAKKGKKPTGPKPRTGSLFRSMDLETVTLEDALKLLSLPRVVGVDPTTNEEITAQNGRYGPYLKRGTDSRSLATEDQIFTITLDEALKIYAEPKRRGRQAASAPPLRELGNDPVSGKPMVIKDGRFGPYVTDGETNASLRKGDDVLTITDERASELLADRRARGPVKKKAPAKKAAKKAPAKKAAAKKA
